Earlier results, collected in patent US20150050259A1, “NUTRACEUTICAL MODULATORS OF STEM CELL ACTIVITY” (Creative Medical Health Inc., priority 2011, published 2015).

B1: G-CSF: Granulocyte colony stimulating factor, cytokine drug used for neutropenia and mobilization of hematopoietic stem cells (protein, UniProt P09919 31-207, looked up)
Granulocyte …: TPLGPASSLPQSFLLKCLEQVRKIQGDGAALQEKLVSECATYKLCHPEELVLLGHSLGIPWAPLSSCPSQALQLAGCLSQLHSGLFLYQGLLQALEGISPELGPTLDTLQLDVADFATTIWQQMEELGMAPALQPTQGAMPAFASAFQRRAGGVLVASHLQSFLEVSYRVLRHLAQP

Key:
[1] = patients after intensive chemotherapy
[2] = stroke patients
[3] = 114 patients, 56 treated and 58 control
[4] = acute stroke patients
[5] = between baseline and 12-month follow-up
[6] = 2.5, 5, or 10 μg/kg G-CSF for 5 consecutive days

Row | Molecule | abnormal growth or acromegaly after treatment [1] | recovery of platelets to 25×10(9)/l, median time ([1]; P=0.03 versus placebo) | increase of CD34s over normal (subcutaneous G-CSF) | safety of administration (subcutaneous G-CSF 10 μg/kg for 6 days, revascularized STEMI patients) | BI: change in the mean group score [2, 5] | EMS: change in the mean group score [2, 5] | ESS: change in the mean group score [2, 5] | NIHSS: change in the mean group score [2, 5] | adverse effects as a result of treatment [2] | influence on infarct size, left ventricular function, or coronary restenosis [3] | increase in the leukocyte count [4, 6] | mobilization of CD34(+) cells [4, 6] | G-CSF toxicity in neuroradiological and neuropsychological follow-up [4]
1 | GH: growth hormone, a 191-amino acid, single chain polypeptide hormone naturally produced by the anterior pituitary | no abnormal growth or acromegaly was observed | 16 days | – | – | – | – | – | – | – | – | – | – | –
2 | B1 | – | – | 20 fold | safe | 120% | 106% | 33% | 59% | no serious adverse effects | no influence on infarct size, left ventricular function, or coronary restenosis | up to 75,500 /μl | Mobilization of CD34(+) cells was observed | did not disclose any specific G-CSF toxicity
